# How the values were obtained:
# [1] = target: full length human ACVR1 (R206H) on HEK293/BRE-luc/hACVR1-R206H-clone H2 cells (human) (UniProt Q04771); test: flow cytometry, 70 nM antibody, HEK293/hACVR1-R206H cells
# [2] = target: human ACVR1 extracellular domain expressed with a C-terminal mouse IgG2a Fc tag (human); test: SPR (Biacore), mAb captured, 25 C
# [3] = target: human ACVR1 extracellular domain expressed with a C-terminal myc-myc-hexahistidine tag (human); test: SPR (Biacore), mAb captured, 25 C
# Chain of human ACVR1 extracellular domain expressed with a C-terminal myc-myc-hexahistidine tag (human) (chain, as listed by the source limits assumed): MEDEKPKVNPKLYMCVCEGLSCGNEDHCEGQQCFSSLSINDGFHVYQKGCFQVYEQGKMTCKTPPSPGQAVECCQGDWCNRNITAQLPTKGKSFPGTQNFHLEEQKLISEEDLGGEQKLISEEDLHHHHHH
# [4] = target: mouse ACVR1 extracellular domain expressed with a C-terminal myc-myc-hexahistidine tag (mouse); test: SPR (Biacore), mAb captured, 25 C
# Chain of mouse ACVR1 extracellular domain expressed with a C-terminal myc-myc-hexahistidine tag (mouse) (chain, as listed by the source limits assumed): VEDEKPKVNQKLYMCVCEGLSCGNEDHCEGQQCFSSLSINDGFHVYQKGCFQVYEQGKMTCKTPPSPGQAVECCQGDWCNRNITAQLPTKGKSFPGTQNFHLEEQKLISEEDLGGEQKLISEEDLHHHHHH
# [5] = target: full length wild type human ACVR1 on HEK293/BRE-luc/hACVR1-wild type cells (human) (UniProt Q04771); test: flow cytometry, 66.6 nM antibody, HEK293/hACVR1-wt cells
# Chain of full length wild type human ACVR1 on HEK293/BRE-luc/hACVR1-wild type cells (human) (Q04771 21-509): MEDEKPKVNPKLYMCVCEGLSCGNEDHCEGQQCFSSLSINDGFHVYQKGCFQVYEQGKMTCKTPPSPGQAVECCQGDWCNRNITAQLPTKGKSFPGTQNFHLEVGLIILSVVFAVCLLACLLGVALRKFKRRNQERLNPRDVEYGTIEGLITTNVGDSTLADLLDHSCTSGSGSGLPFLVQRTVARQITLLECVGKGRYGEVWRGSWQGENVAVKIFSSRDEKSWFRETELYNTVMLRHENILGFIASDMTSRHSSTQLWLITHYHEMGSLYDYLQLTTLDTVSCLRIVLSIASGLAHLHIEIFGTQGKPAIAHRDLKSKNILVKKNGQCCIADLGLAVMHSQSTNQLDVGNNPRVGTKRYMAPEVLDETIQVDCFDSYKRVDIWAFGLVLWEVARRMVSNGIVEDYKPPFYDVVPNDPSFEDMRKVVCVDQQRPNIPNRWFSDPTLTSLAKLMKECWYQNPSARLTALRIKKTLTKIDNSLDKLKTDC
# [6] = target: human ACVR1 extracellular domain expressed with a C-terminal mouse IgG2a Fc tag (human); test: SPR (Biacore), mAb captured, 37 C
# [7] = target: human ACVR1 extracellular domain expressed with a C-terminal myc-myc-hexahistidine tag (human); test: SPR (Biacore), mAb captured, 37 C
# [8] = target: mouse ACVR1 extracellular domain expressed with a C-terminal myc-myc-hexahistidine tag (mouse); test: SPR (Biacore), mAb captured, 37 C
# [9] = target: full length human ACVR1 (R206H) on HEK293/BRE-luc/hACVR1-R206H-clone H2 cells (human) (UniProt Q04771); test: flow cytometry, 66.6 nM antibody, HEK293/hACVR1-R206H cells
# [10] = target: full length human ACVR1 (R206H) on HEK293/BRE-luc/hACVR1-R206H-clone H2 cells (human) (UniProt Q04771); test: cell-based or functional assay
# [11] = target: full length human ACVR1 (R206H) on HEK293/BRE-luc/hACVR1-R206H-clone H2 cells (human) (UniProt Q04771); test: flow cytometry, secondary antibody alone (66.6 nM run), HEK293/hACVR1-R206H cells
# [12] = target: full length wild type human ACVR1 on HEK293/BRE-luc/hACVR1-wild type cells (human) (UniProt Q04771); test: flow cytometry, secondary antibody alone (66.6 nM run), HEK293/hACVR1-wt cells
# [13] = target: full length human ACVR1 (R206H) on HEK293/BRE-luc/hACVR1-R206H-clone H2 cells (human) (UniProt Q04771); test: flow cytometry, secondary antibody alone (70 nM run), HEK293/hACVR1-R206H cells
# Chain of full length human ACVR1 (R206H) on HEK293/BRE-luc/hACVR1-R206H-clone H2 cells (human) (Q04771 21-509 R206H): as the sequence (Q04771 21-509) above, with R186H counted along it
# Chain of human ACVR1 extracellular domain expressed with a C-terminal mouse IgG2a Fc tag (human) (chain, as listed by the source limits assumed): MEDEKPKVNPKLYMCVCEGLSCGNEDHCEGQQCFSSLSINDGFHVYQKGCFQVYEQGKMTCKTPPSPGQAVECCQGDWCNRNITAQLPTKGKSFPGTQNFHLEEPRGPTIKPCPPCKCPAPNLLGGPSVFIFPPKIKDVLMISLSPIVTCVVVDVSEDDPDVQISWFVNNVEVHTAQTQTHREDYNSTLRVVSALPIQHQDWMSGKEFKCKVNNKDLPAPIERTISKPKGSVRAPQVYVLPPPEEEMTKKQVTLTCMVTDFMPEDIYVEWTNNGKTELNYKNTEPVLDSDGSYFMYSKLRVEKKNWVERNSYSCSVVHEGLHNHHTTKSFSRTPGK
substance,measurement,setting,value
hIgG4 isotype control antibody (REGN1945),MFI - Normalized to Unstained Control,[1],3 fold
same,100 nM Ag Bound (RU),[2],-2 RU
same,900 nM or 100 nM Ag Bound (RU),[3],1 RU
same,900 nM or 100 nM Ag Bound (RU),[4],-2 RU
same,MFI - Normalized to Unstained Control,[5],3 fold
same,100 nM Ag Bound (RU),[6],-1 RU
same,900 nM or 100 nM Ag Bound (RU),[7],0 RU
same,900 nM or 100 nM Ag Bound (RU),[8],0 RU
same,MFI - Normalized to Unstained Control,[9],1 fold
human Bone Morphogenetic Protein 7 (R&D System 354-BP/C) (from UniProt P18075 293-431) (ligand),"EC50 [M], BRE-luc reporter activation by ligand (run with 2 nM hBMP7)",[10],1.22e-09 M
same,"EC50 [M], BRE-luc reporter activation by ligand (run with 3 nM hBMP7)",[10],2.97e-10 M
human Activin A (R&D System 338-AC) (from UniProt P08476 311-426) (ligand),"EC50 [M], BRE-luc reporter activation by ligand",[10],3.33e-10 M
"Alexa Fluor-647 conjugated secondary antibody (Jackson ImmunoResearch, anti-human #109-607-003), alone",MFI - Normalized to Unstained Control,[11],1 fold
same,MFI - Normalized to Unstained Control,[12],1 fold
same,MFI - Normalized to Unstained Control,[13],1 fold

# Reference: patent publication US20210253716A1
